The results in this text go back to patent US20150306234.

Residue numbers refer to the chain shown, from its start.

Data set [1] relates to T1, B domain deleted FVIII (BDD FVIII), unmutated.
T1 sequence: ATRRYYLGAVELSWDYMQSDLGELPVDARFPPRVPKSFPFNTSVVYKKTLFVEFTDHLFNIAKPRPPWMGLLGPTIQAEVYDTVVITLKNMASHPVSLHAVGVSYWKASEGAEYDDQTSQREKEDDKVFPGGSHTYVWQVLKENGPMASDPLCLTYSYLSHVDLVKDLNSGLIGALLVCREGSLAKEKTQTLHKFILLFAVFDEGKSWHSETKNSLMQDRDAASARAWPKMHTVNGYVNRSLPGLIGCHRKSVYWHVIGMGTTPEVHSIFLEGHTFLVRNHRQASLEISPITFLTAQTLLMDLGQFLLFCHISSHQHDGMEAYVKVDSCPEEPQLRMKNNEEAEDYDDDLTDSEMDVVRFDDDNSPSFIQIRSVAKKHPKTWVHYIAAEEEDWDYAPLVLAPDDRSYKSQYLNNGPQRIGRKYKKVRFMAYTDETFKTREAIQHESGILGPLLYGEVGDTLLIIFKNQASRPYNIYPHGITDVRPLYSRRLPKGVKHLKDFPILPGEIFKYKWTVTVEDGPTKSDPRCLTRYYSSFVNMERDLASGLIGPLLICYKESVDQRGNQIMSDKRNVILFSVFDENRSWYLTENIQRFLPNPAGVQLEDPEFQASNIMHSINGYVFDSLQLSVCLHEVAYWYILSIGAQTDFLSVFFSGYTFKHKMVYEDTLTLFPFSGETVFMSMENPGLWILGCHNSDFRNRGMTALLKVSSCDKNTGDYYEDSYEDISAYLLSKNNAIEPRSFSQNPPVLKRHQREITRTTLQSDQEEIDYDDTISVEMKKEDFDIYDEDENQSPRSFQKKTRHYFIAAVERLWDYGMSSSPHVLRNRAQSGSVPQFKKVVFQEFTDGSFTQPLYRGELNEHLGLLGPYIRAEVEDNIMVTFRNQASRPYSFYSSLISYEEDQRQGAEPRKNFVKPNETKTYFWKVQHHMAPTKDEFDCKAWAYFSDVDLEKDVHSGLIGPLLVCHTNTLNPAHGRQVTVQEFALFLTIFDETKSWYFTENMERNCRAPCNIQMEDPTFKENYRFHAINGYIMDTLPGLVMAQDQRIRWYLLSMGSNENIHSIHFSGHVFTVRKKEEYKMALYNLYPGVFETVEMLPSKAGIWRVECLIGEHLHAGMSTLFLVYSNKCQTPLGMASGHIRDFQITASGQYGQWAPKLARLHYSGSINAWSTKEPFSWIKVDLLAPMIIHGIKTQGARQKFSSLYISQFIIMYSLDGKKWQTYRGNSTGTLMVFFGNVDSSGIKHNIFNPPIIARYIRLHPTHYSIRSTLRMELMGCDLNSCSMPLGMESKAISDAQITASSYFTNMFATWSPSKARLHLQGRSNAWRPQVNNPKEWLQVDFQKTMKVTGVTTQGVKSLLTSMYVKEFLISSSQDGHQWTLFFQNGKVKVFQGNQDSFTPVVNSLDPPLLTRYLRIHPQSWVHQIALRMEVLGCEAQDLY

The next data set deals with T2, BDD FVIII mutein S2206C.
T2 sequence: T1 sequence with L986F, S1312C

As to “thrombin (Haematologic Technologies, Essex Junction, Vt.)”, the “thrombin cleavage, SDS-PAGE with silver staining” value in data set [1] was “Thrombin digestion of the muteins and control produced the expected cleavage fragments”; in the data set with BDD FVIII mutein S2206C, “Thrombin digestion of the muteins and control produced the expected cleavage fragments”.
